Experimental findings from patent publication US20220411517A1 (LEO PHARMA A S, published 2022) are described below.

Experiment [1] deals with T1, human IL1RAcP domain 1/2 (AG-12337) (human).
T1 construct: also called domain 1/2 of human IL-1RAcP
The experiment is described as follows: ELISA on directly coated human IL-1RAcP domain 1/2 (AG-12337), IgG1f_AEASS titrated, S/BG. In general terms: In an ELISA, binding on a coated surface is turned into a signal by an enzyme label.

The target of experiment [2] is human IL-1RAcP on cells (human, UniProt Q9NPH3 21-570). As to the kind of experiment: cell-based or functional assay.
The target of experiment [3] is cynomolgus IL-1RAcP on cells (cynomolgus, UniProt A0A2K5X5J5 21-570). The experiment is described as follows: cell-based or functional assay.
Experiment [4] concerns the target T2, cyIL-1RAP(1-367)_F-chLys_Avi (cynomolgus, biotinylated (Avi tag) in SPR; unlabeled in SET).
T2 construct: cynomolgus IL-1RAcP (21-367) is UniProt A0A2K5X5J5; also called cynomolgus IL-1RAcP (AG-12211)
The experiment is described as follows: ELISA on cynomolgus IL-1RAcP (AG-12211), IgG1f_AEASS titrated 0.007-200 nM, AP-coupled secondary antibody with AttoPhos, signal over background (S/BG).
Source text: (§1) Bound antibodies were detected using respective alkaline-phosphatase (AP) coupled secondary antibodies in combination with ‘AttoPhos’ fluorescence substrate. Multiple washing steps have been performed in between individual assay steps.

Experiment [5] deals with T3, human IL1RAcP domain 1 (AG-12335) (human).
T3 construct: also called domain 1 of human IL-1RAcP
T3 chain: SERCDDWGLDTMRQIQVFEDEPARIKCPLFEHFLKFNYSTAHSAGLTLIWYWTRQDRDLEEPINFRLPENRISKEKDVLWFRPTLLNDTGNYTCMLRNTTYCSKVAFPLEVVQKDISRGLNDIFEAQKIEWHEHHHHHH
The experiment is described as follows: ELISA on directly coated human IL-1RAcP domain 1 (AG-12335), IgG titrated, S/BG.
Procedure: All were assessed with direct coating of the antigen. […] An anti-His antibody served as positive control.

Experiment [6] deals with T4, hIL-1RAP(1-367)_F-chLys_Avi (human, biotinylated (Avi tag) in SPR and ELISA binning; unlabeled in SET).
T4 construct: also called human IL-1RAcP (AG-12210)
The experiment is described as follows: ELISA on human IL-1RAcP (AG-12210), IgG1f_AEASS titrated 0.007-200 nM, AP-coupled secondary antibody with AttoPhos, signal over background (S/BG).
Source text: as §1

Experiment [7] concerns the target T2, cyIL-1RAP(1-367)_F-chLys_Avi. The experiment is described as follows: solution equilibrium titration (SET), ECL read-out, IgG.
Procedure: (§2) MSD SulfoTAG™ NHS-Ester (Meso Scale Diagnostics) according to the manufacturer's instructions. […] Serial dilutions of unlabeled antigen were prepared, starting with a concentration at least 10 times higher than the expected KD. Wells without antigen were used to determine Bₘₐₓ values;
(§3) wells containing only assay buffer were used to determine background. […] MSD plates were coated with antigen on standard plates (30 μL per well). After washing the plate with PBS with 0.05% Tween 20, the equilibrated samples were transferred to the plates and incubated for 20 min. […] After washing the MSD plate and adding 30 μL/well MSD Read Buffer T with surfactant, electrochemiluminescence signals were detected using a MESO SECTOR S 600 (Meso Scale Diagnostics).
(§4) The data was evaluated with XLfit (IDBS) software applying customized fitting models.
Experiment [8] addresses T5, human IL1RAcP domain 3 (AG-12127) (human).
T5 construct: also called domain 3 of human IL-1RAcP
T5 chain: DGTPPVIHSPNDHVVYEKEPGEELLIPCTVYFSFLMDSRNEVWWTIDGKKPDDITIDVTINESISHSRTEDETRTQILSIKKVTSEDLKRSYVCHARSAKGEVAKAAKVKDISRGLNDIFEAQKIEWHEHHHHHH
As to the kind of experiment: ELISA on directly coated human IL-1RAcP domain 3 (AG-12127), IgG titrated, S/BG.

The target of experiment [9] is T4, hIL-1RAP(1-367)_F-chLys_Avi. The experiment is described as follows: solution equilibrium titration (SET), ECL read-out, IgG.
Procedure: as §2, §3, §4

B1: Y024084_h_IgG1f_AEASS (antibody, V domains shown)
VH: QVQLVQSGAEVKKPGASVKVSCKASGYTFTSYYMHWVRQAPGQGLEWMGIINPSGGSTSYAQKFQGRVTMTRDTSTSTVYMELSSLRSEDTAVYYCARGFVTSGIDYWGQGTLVTVSS
VL: QSVLTQPPSVSAAPGQKVTISCSGSSSNIGNNYVSWYQQLPGTAPKLLIYDNNKRPSGIPDRFSGSKSGTSATLGITGLQTEDEADYYCQTWTYTGRLWIVFGGGTKLTVLG
notes: also called Morphosys 24084; Mor Y024084
As usually defined, the EC50 (read off the curve) is the concentration at which the effect is half-maximal. For orientation: Kd means the free concentration of one partner at which half of the binding sites on the other are occupied at equilibrium, for simple one-to-one binding. Take B1: in [1], the “EC50 (read off the curve)” value is about 3 nM. In addition, in experiment [2], the “IC50, IFNγ release, PBMC stimulated with IL-1β” value (from here on “IC50, IFNγ release … with IL-1β”) worked out at 5.2 nM; the “IC50, IFNγ release, PBMC stimulated with IL-33” value (from here on “IC50, IFNγ release … with IL-33”) amounted to 0.69 nM; the “IC50, IL-8 release, HDFa stimulated with IL-1α” value (from here on “IC50, IL-8 release … with IL-1α”) came out at 20 nM; the “IC50, IL-8 release, HDFa stimulated with IL-36α” value (from here on “IC50, IL-8 release … with IL-36α”) worked out at 0.025 nM. In addition, in experiment [2], the “IC50, IL-8 release, HDFa stimulated with IL-36β” value was 0.033 nM; the “IC50, IL-8 release, HDFa stimulated with IL-36γ” value (shortened to “IC50, IL-8 release … with IL-36γ”) came out at 0.022 nM; the “IC50, IL-8 release, HEKa stimulated with IL-1β” value (“IC50, IL-8 release … with IL-1β” below) came to 19 nM; the “IC50, IL-8 release, HEKa stimulated with IL-36β” value is 0.029 nM. Besides, the “IC50, IL-8 release, CyDFa stimulated with cynomolgus IL-1β” value (“IC50, IL-8 release, CyDFa stimulated” for short) in experiment [3] amounted to 0.12 nM. The “EC50 (read off the curve)” value in experiment [4] was in the range of 0.1 to 0.2 nM. For the same molecule, the binding result in [5] is listed as “no binding (tested: 2e-7 M)”. Besides, in experiment [6], the “EC50 (read off the curve)” value was in the range of 0.1 to 0.2 nM. The Kd in experiment [7] was determined as 4 pM. For the same molecule, the binding result in experiment [8] is “no binding (tested: 2e-7 M)”. Further, the dissociation constant (Kd) in experiment [9] was determined as 4 pM.

B2: h11C5 YKD (antibody, human IgG1, kappa, V domains shown)
VH: EVQLVESGGGLVQPGGSLRLSCAASGFTFSNYAMSWVRQAPGKGLEWVATVTEGGDYNYYLDDVKGRFTISRDNAKNSLYLQMNSLRAEDTAVYYCARDDWPYFFDYWGQGTLVTVSS
VL: DIQMTQSPSSLSASVGDRVTITCRASENIYSNLAWYQQKPGKSPKLLVYGYKNLADVPSRFSGSGSGTDYTLTISSLQPEDFATYYCQHFKTTPRTFGGGTKVEIKR
notes: Variable domains of h11C5 YKD on the same modified IgG1 kappa constant regions (AEASS); Printed as 'h1105' in much of the text; also called h1105
In the case of B2, in [2], the “IC50, IFNγ release … with IL-1β” value is 4.6 nM; the “IC50, IFNγ release … with IL-33” value stood at 0.82 nM; the “IC50, IL-8 release … with IL-1α” value was determined as 22 nM; the “IC50, IL-8 release … with IL-36α” value was 0.18 nM. Further, in experiment [2], the “IC50, IL-8 release, HDFa stimulated with IL-36β” value amounted to 0.28 nM; the “IC50, IL-8 release … with IL-36γ” value came to 0.24 nM; the “IC50, IL-8 release … with IL-1β” value was 670 nM; the “IC50, IL-8 release, HEKa stimulated with IL-36β” value stood at 1.98 nM. In addition, in [3], the “IC50, IL-8 release, CyDFa stimulated” value came to 1 nM. Besides, the Kd in experiment [7] was 3 pM. The Kd in [9] was found to be 3 pM.

B3: R001031 (CAN04) (antibody, human IgG1, kappa, V domains shown)
VH: QVQLVQSGAEVKKPGSSVKVSCKASGYAFSSSWMNWVRQAPGQGLEWMGRIYPGDGNTHYAQKFQGRVTLTADKSTSTAYMELSSLRSEDTAVYYCGEGYLDPMDYWGQGTLVTVSS
VL: DIQMTQSPSSLSASVGDRVTITCSASQGINNYLNWYQQKPGKAPKLLIHYTSGLHAGVPSRFSGSGSGTDYTLTISSLQPEDVATYYCQQYSILPWTFGGGTKVEIKR
notes: Variable domains of prior art CAN04 on human IgG1 kappa constant regions with AEASS
B3: the “EC50 (read off the curve)” value in experiment [1] was about 3 nM. Also, in experiment [2], the “IC50, IFNγ release … with IL-1β” value was determined as 3.5 nM; the “IC50, IFNγ release … with IL-33” value came to 1.3 nM; the “IC50, IL-8 release … with IL-1α” value stood at 3.6 nM; the “IC50, IL-8 release … with IL-36α” value was 0.019 nM. In addition, in experiment [2], the “IC50, IL-8 release, HDFa stimulated with IL-36β” value was 0.024 nM; the “IC50, IL-8 release … with IL-36γ” value turned out to be 0.008 nM; the “IC50, IL-8 release … with IL-1β” value amounted to 18 nM; the “IC50, IL-8 release, HEKa stimulated with IL-36β” value is 0.02 nM. The “IC50, IL-8 release, CyDFa stimulated” value in experiment [3] came out at 1 nM. Moreover, in [5], the binding result is given as “no binding (tested: 2e-7 M)”. Besides, in experiment [7], the Kd amounted to 16 pM. Further, in experiment [8], the binding result is “no binding (tested: 2e-7 M)”. The Kd in experiment [9] is 21 pM.
